# Measurements published in patent US20210179726A1 (DINGFU BIOTARGET, published 2021).
# Substitutions are numbered along the chain they refer to.
# T1: hGITR-EGFP on HEK293 cells (human, UniProt Q9Y5U5 26-241)
# T1 construct: EGFP fusion expressed on transfected HEK293 cells; also called human GITR
# T1 sequence (looked up): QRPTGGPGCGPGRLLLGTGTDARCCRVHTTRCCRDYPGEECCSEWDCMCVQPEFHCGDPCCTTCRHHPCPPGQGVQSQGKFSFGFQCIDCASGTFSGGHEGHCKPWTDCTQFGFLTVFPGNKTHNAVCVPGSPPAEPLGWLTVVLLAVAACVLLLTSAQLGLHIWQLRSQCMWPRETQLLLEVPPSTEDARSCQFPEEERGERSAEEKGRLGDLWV
# T2: hOX40-EGFP on HEK293 cells (human, UniProt P43489 29-277)
# T2 construct: EGFP fusion expressed on transfected HEK293 cells; also called human OX40
# T2 sequence (looked up): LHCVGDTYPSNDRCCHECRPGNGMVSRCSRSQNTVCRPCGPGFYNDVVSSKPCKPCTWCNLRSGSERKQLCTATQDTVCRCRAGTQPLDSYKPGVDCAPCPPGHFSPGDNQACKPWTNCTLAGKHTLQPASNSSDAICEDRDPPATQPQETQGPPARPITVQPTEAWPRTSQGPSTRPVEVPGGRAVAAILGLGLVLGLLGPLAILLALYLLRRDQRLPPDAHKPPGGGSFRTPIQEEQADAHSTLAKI
# T3: hCD27-muFc (human; mouse, UniProt P26842 20-192)
# T3 construct: range 1-192; Secreted from HEK293, Protein A purified; not shown: mouse IgG1-Fc (muFc), residues 98 to 324 of UniProt P01868
# T3 sequence (looked up): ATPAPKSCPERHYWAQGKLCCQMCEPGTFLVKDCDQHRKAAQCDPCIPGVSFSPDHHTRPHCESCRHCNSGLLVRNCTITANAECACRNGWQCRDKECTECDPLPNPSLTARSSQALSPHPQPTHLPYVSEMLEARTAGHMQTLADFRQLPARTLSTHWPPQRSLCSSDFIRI
# T4: hCD27-EGFP on HEK293 cells (human, UniProt P26842 20-260)
# T4 construct: EGFP fusion expressed on transfected HEK293 cells; also called CD27-EGFP cells; cell surface CD27
# T4 sequence (looked up): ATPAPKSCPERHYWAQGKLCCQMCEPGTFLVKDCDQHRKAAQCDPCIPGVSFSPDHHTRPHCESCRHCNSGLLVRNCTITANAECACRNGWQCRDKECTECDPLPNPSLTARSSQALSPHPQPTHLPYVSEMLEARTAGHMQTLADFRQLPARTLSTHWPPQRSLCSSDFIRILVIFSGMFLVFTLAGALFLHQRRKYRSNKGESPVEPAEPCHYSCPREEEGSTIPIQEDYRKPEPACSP
# B1: m1A8 (antibody, human IgG1, V domains shown)
# VH: EVQLQESGAELVKPGASVKLSCKASGYSFTSSWMHWVKQRPGQGLEWIGMIHPDSGFTNYNEKFKSKATLTVDKSSSTAYMRLSSLTSEDSAVYYCARTSYYDTSYTSMDFWGQGNSVTVSS
# VL: DIVLTQSPAILSVSPGERVSFSCRASQSIGTSIHWYQQRTNGSPRLLIKYASESISGIPSRFSGSGSGTDFTLSINSVESEDIADYYCQQSNSWPLTFGAGTKLELK
# notes: Chimeric antibody: mouse VH/VL on human IgG1 / human kappa constant regions; also called clone 1A8; not shown: human IgG1 constant region, UniProt P01857
# B2: m4G1 (antibody, human IgG1, V domains shown)
# VH: QVQLQQSGPELVKPGASVKISCKASGYSFTAYNMNWVKQSKGKSLEWIGLINPNYATTSYNQKFKDKATLTVDQSSSTAYMQLNSLTSEDSAVYYCAYYSYYSYGGGYAMDYWGQGTSVTVSS
# VL: B1 VL with V3L, T72I, L96W, A100G, K103R, L106I
# notes: Chimeric antibody: mouse VH/VL on human IgG1 / human kappa constant regions; also called clone 4G1; not shown: human IgG1 constant region, UniProt P01857
# B3: m2B8 (antibody, human IgG1, V domains shown)
# VH: EVQLQESGGGLVQPKGSLKLSCAASGFNFNTYTMNWVRQAPGKGLEWVARIRYKSNNYATYYADSVKDRFTISRDDSESILYLQMNNLRTDDTAIYFCVRELGLWYFDVWGAGTTVTVSS
# VL: DIVMTQSPSYLAASPGETITINCRASKSISKYLAWYREKPGKTNNLLIYSGSTLQSGIPSRFSGSGSGTDFTLTISSLEPEDFAMYYCQQHNEYPLTFGAGTKLELK
# notes: Chimeric antibody: mouse VH/VL on human IgG1 / human kappa constant regions; also called clone 2B8; not shown: human IgG1 constant region, UniProt P01857
# B4: 12996 (antibody, human IgG1, V domains shown, not shown: a dimerising Fc or GST)
# VH: EVHLQESGGGLVKPGGSLRLSCAASGFTFSSYAMSWVRQAPEKGLEWVAIIGDGDTYTYYPDSVKGRFTISRDNSKNRLYLQMNSLKSEDTAMYYCVRTRGGPFDYWGQGTTLTVSS
# VL: EILLTQSPAFMSATPGEKVTITCSASSSVGSMHWYQQKSGQSPRRLIYDTSKLASGVPDRFSGSGSGTDYTLTISSLEAEDAATYYCQQWSSIPPTFGAGTTLELK
# notes: Humanized m2F11, human IgG1 / kappa
# B5: d9419 (antibody, human IgG1, V domains shown, not shown: a dimerising Fc or GST)
# VH: B4 VH with G10A, A40K, G44N, S75A, R78T, N84S, S85D
# VL: B4 VL
# notes: as for B4
# B6: d16647 (antibody, human IgG1, V domains shown, not shown: a dimerising Fc or GST)
# VH: B4 VH with E1Q, H3E, Q5R, A40T, E42D, S85D
# VL: B4 VL
# notes: as for B4
# B7: 12674 (antibody, human IgG1, V domains shown, not shown: a dimerising Fc or GST)
# VH: B4 VH with E42G
# VL: B4 VL
# notes: as for B4
# B8: d12996 (antibody, human IgG1, V domains shown, not shown: a dimerising Fc or GST)
# VH: B4 VH with A40E, G44N, S85D
# VL: B4 VL
# notes: as for B4
# B9: 14822 (antibody, human IgG1, V domains shown, not shown: a dimerising Fc or GST)
# VH: B4 VH with A40M, E42G, R78T
# VL: B4 VL
# notes: as for B4
# B10: 9419 (antibody, human IgG1, V domains shown, not shown: a dimerising Fc or GST)
# VH: B4 VH with G10A, S75A, R78T, N84S, S85N
# VL: B4 VL
# notes: as for B4
# B11: d14822 (antibody, human IgG1, V domains shown, not shown: a dimerising Fc or GST)
# VH: B4 VH with A40T, E42D, R78T, S85D
# VL: B4 VL
# notes: as for B4
# B12: 16647 (antibody, human IgG1, V domains shown, not shown: a dimerising Fc or GST)
# VH: B4 VH with E1Q, H3E, Q5R, A40M, E42G
# VL: B4 VL
# notes: as for B4
# B13: 9424 (antibody, human IgG1, V domains shown, not shown: a dimerising Fc or GST)
# VH: B4 VH with A40T, S75A, R78T
# VL: B4 VL
# notes: as for B4
# B14: d12674 (antibody, human IgG1, V domains shown, not shown: a dimerising Fc or GST)
# VH: B4 VH with E42G, S85D
# VL: B4 VL
# notes: as for B4
# Target: T1, hGITR-EGFP on HEK293 cells
# Experiment: FACS on hGITR-EGFP HEK293 cells
# Protocol: (§1) The hCD137-EGFP, hOX40-EGFP and hGITR-EGFP cells as described in Example 1 were washed twice in PBS, 10 μg/ml of each chimeric antibody as prepared in Example 3 (m2E7, m2B8, m4H3, m3E7, m1A8, m4G1, m2G3, m2F11 and m3B8) was added to each type of cells and incubated at 4° C. for 30 min. Then it was washed twice with PBS, anti-human Ig-APC (Jackson ImmunoResearch Laboratories, Cat #109-135-098) was added and were incubated at 4° C. for 30 min, washed twice with PBS and resuspended in 300 μl PBS. In FIG. 2, NC represents negative control (PBS), a-hlg-APC represents secondary antibody only, the other panels represent results obtained with each of the corresponding clone, respectively.
row,binding result,Binder
1,no binding (tested: 10 µg/ml),B1
2,no binding (tested: 10 µg/ml),B2
3,no binding (tested: 10 µg/ml),B3

# Target: T2, hOX40-EGFP on HEK293 cells
# Experiment: FACS on hOX40-EGFP HEK293 cells
# Protocol: as §1
row,binding result,Binder
1,no binding (tested: 10 µg/ml),B1
2,no binding (tested: 10 µg/ml),B2
3,no binding (tested: 10 µg/ml),B3

# Target: T5, hCD137-EGFP on HEK293 cells (human, UniProt Q07011 24-255)
# T5 construct: EGFP fusion expressed on transfected HEK293 cells; also called human CD137
# T5 sequence (Q07011 24-255): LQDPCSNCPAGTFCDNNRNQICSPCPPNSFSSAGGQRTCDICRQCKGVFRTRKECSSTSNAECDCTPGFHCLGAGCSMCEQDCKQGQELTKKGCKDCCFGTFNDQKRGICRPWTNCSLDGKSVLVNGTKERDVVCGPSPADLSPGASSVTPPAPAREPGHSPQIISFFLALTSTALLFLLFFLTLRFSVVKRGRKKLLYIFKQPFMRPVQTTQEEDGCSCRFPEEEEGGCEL
# Experiment: FACS on hCD137-EGFP HEK293 cells
# Protocol: as §1
row,binding result,Binder
1,no binding (tested: 10 µg/ml),B1
2,no binding (tested: 10 µg/ml),B2
3,no binding (tested: 10 µg/ml),B3

# Target: T3, hCD27-muFc
# Experiment: ELISA, plate coated with hCD27-muFc, Test 1
# Protocol: (§2) The ELISA plate was coated with 2 μg/ml hCD27-muFc, 100 μl/well and incubated at 4° C. overnight. Then it was washed once with 10 mM, pH 7.4 PBS/Tween (0.05%), blocked with PBST containing 5% skimmed milk powder and incubated at 37° C. for 2 h. After washing the plate for 4 times, the humanized antibodies were added and incubated at 37° C. for 40 min, then it was washed for 4 times. Anti-human IgG-HRP-conjugated secondary antibody (Sigma, Cat #A0170-1M) was added and incubated at 37° C. for 40 min. After washing, the plate was developed with TMB substrate and spectrophotometric analysis was performed at OD₄₅₀. In FIGS. 5A-5B, each curve represents the binding result obtained for one of the humanized antibodies. From the results, it can be seen that all these humanized antibodies could bind to human CD27.
row,EC50 [µg/mL],Binder
1,0.0506,B4
2,0.033,B5
3,0.0376,B6
4,0.0585,B7
5,0.03,B8
6,0.0427,B9
7,0.0583,B10

# Target: T3, hCD27-muFc
# Experiment: ELISA, plate coated with hCD27-muFc, Test 2
# Protocol: as §2
row,EC50 [µg/mL],Binder
1,0.0339,B11
2,0.0445,B12
3,0.0342,B13
4,0.0424,B14

# Target: T3, hCD27-muFc
# Experiment: BLI (Octet K2), antibody on Protein A biosensor, hCD27-muFc in solution
# Protocol: Using the BLI method, each humanized antibody was immobilized on a Protein A biosensor at a concentration of 10 μg/ml, while hCD27-muFc was subjected to 2-fold serial dilution, starting from 100 nM, to obtain 5 gradient dilutions for each antibody. The reaction plate was placed on the Octet K2 instrument. The parameters were set to Baseline 70 s, Association 80 s, Dissociation 300 s, Baseline 260 s, Loading 40 s, and Custom 5 s.
Kd [nM],koff [s⁻¹],kon [M⁻¹ s⁻¹],Binder
4.98,0.000368,73900,B4
4.27,0.000334,78200,B11
1.7,0.000205,120000,B5
4.86,0.000348,71500,B12
3.05,0.000281,92100,B6
3.66,0.000291,79500,B7
7.02,0.000396,56500,B13
3.39,0.000326,96200,B8
5.15,0.000499,97000,B9
5,0.000447,89400,B14
2.73,0.000287,105000,B10

# Target: T4, hCD27-EGFP on HEK293 cells
# Experiment: FACS titration on CD27-EGFP HEK293 cells, 8 three-fold dilutions from 20 µg/ml, anti-human Ig-APC secondary, MFI; table drawn under the plot, unit from the x axis; no upper plateau reached
# Protocol: Based on the above results of ELISA, 7 humanized antibodies were selected to examine their affinities to cell surface CD27. Briefly, 5×10⁵ CD27-EGFP cells prepared in Example 1 were washed twice in PBS, each of the humanized antibodies (d16647, d12996, d9419, 14822, 9424, d14822, d12674) was added. The antibodies were subjected to 3-fold serial dilution, starting from 20 μg/ml, to obtain 8 gradient dilutions for each antibody. The antibodies and the cells were incubated at 4° C. for 30 min. Then, it was washed twice with PBS, anti-human Ig-APC (Jackson ImmunoResearch Laboratories, Cat #109-135-098) was added, and incubated at 4° C. for 30 min, washed twice with PBS and resuspended in 300 μl PBS. Flow cytometry was then performed, and the results are shown in FIG. 6. m2F11 was used as a control.
row,LogEC50,Binder
1,0.373 Log10(ug/ml),B11
2,0.564 Log10(ug/ml),B5
3,0.601 Log10(ug/ml),B6
4,0.546 Log10(ug/ml),B13
5,0.562 Log10(ug/ml),B8
6,0.62 Log10(ug/ml),B9
7,0.635 Log10(ug/ml),B14
